In paper PMC3931814, “Dehydroepiandrosterone Sulfate (DHEAS) Stimulates the First Step in the Biosynthesis of Steroid Hormones” (PLoS ONE, 2014):

Experiments:
Settings in all cases: both partners purified
CYP11A1 [1] = molecular target: T1, CYP11A1 (UniProt P00189 40-520); assay: SPR; Biacore3000; CYP11A1 injected at 5-7.5 nM in HBS-EP buffer, at least three times each; bound CYP11A1 removed with 2 mM NaOH; in absence of cholesterol; Biaeval 4.1; set-up: scale not given here
T1 construct: CYP11A1 (cholesterol side-chain cleavage cytochrome P450); Single band at 55 kDa on SDS gel; Heme protein; also called recombinant CYP11A1; His-tagged CYP11A1; source: E. coli C43(DE3), co-transformed with groEL/groES chaperones, purified (IMAC Ni-NTA, SP-sepharose)
T1 sequence (looked up): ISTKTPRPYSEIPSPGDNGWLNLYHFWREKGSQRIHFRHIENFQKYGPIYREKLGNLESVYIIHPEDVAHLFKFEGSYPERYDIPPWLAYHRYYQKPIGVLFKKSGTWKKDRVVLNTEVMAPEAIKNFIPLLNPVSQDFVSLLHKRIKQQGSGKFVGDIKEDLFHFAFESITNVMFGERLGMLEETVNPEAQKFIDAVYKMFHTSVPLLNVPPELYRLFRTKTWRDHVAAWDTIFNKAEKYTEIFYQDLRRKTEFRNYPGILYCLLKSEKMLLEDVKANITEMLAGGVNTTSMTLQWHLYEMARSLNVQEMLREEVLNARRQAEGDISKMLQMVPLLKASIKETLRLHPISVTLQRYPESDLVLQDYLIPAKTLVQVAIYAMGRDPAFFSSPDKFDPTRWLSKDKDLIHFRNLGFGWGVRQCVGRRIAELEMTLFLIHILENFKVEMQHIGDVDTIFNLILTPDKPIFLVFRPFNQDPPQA

CYP11A1 [2] = molecular target: T1, CYP11A1; assay: SPR; Biacore3000; CYP11A1 injected at 5-7.5 nM in HBS-EP buffer; bound CYP11A1 removed with 2 mM NaOH; in the presence of cholesterol (CYP11A1:cholesterol 1:10 by the methods, 1:15 by the legend of Figure 7); Biaeval 4.1; set-up: scale not given here
CYP11A1 [3] = molecular target: T1, CYP11A1; assay: as above
CYP11A1 [4] = molecular target: T1, CYP11A1; assay: SPR; Biacore3000; CYP11A1 injected at 5-7.5 nM in HBS-EP buffer; bound CYP11A1 removed with 2 mM NaOH; in the presence of cholesterol and DHEAS (CYP11A1:cholesterol:DHEAS 1:10:50 by the methods, 1:15:75 by the legend of Figure 7); Biaeval 4.1
CYP11A1 [5] = molecular target: T1, CYP11A1; assay: SPR; Biacore3000; CYP11A1 injected at 5-7.5 nM in HBS-EP buffer, at least three times each; bound CYP11A1 removed with 2 mM NaOH; in absence of cholesterol; Biaeval 4.1

koff (CYP11A1 [1]): 2.4 ± 0.99 s⁻¹ | koff (CYP11A1 [2]): 2.8 ± 0.09 s⁻¹ | Kd (CYP11A1 [3]): 3 ± 0.35 nM | Kd (CYP11A1 [4]): 2.4 ± 0.05 nM | Kd (CYP11A1 [5]): 3.8 ± 0.55 nM
B1: bovine adrenodoxin (natural protein, UniProt P00257 59-186, looked up)
chain: SSSEDKITVHFINRDGETLTTKGKIGDSLLDVVVQNNLDIDGFGACEGTLACSTCHLIFEQHIFEKLEAITDEENDMLDLAYGLTDRSRLGCQICLTKAMDNMTVRVPDAVSDARESIDMGMNSSKIE
notes: adrenodoxin (Adx), bovine, the ferredoxin that transfers electrons to CYP11A1; [2Fe-2S] protein; also called Adx
